Data as given in US20250276018A1 (AFFYIMMUNE THERAPEUTICS, published 2025).
Changes are numbered by the printed parent chain. Names and notes keep the numbering of the source. Read-outs that look alike come from different tables or passages of the source.

Assays:
[1] = target: T1, c-MET on human target cells (human, UniProt P08581 25-1390); assay: cell-based or functional assay
[2] = target: T1, c-MET on human target cells; assay: cell-based or functional assay; remark: listed apart in the source
[3] = target: T1, c-MET on human target cells; assay: cell-based or functional assay; remark: listed apart in the source
[4] = target: T1, c-MET on human target cells; assay: cell-based or functional assay; remark: listed apart in the source
[5] = target: T2, AF647 labeled c-met protein (UniProt P08581 25-932, limits assumed, labeled with AlexaFluor 647 (AF647)); assay: flow cytometry, EC50 relative to parental Affy7 CAR-T cells (Round 1)
T2 construct: Soluble labeled c-met protein titrated on CAR-T cells
Method: (§1) Binding of labeled c-MET to CAR-T cells expressing the affinity tuned c-MET scFvs was evaluated by transducing lentivirus anti-c-MET CAR particles into human T cells to form c-MET CAR-T cells incubated with AF647-labeled c-MET. […] Following a 48 hr. incubation at 37° C., the culture media was brought up to […] per well and incubated at 37° C. for 10 days.
(§2) Cells were stained on ice for 30 mins and then washed with PBS. After washing, residually bound protein on CAR T cells were measured on a flow cytometer (Beckman, CytoFLEX®). The resulting binding data was fit using a non-linear regression analysis on GraphPad Prism to calculate half effective dose concentration (EC₅₀) values. The results of this analysis are shown in FIGS. 2-5 and Tables 2-5 below.

[6] = target: T2, AF647 labeled c-met protein; assay: flow cytometry, AF647-labeled c-met protein titrated on CAR-T cells (Round 1)
Method: as §1, §2

[7] = target: T2, AF647 labeled c-met protein; assay: flow cytometry, AF647-labeled c-met protein on CAR-T cells; lower end tied to Affy7-L9A by Table 2
Method: as §2

[8] = target: T1, c-MET on human target cells; assay: cell-based or functional assay; remark: listed apart in the source
[9] = target: T1, c-MET on human target cells; assay: cell-based or functional assay; remark: listed apart in the source
[10] = target: T1, c-MET on human target cells; assay: cell-based or functional assay; remark: listed apart in the source
[11] = target: T1, c-MET on human target cells; assay: cell-based or functional assay; remark: listed apart in the source
[12] = target: T1, c-MET on human target cells; assay: cell-based or functional assay; remark: listed apart in the source
[13] = target: T1, c-MET on human target cells; assay: cell-based or functional assay; remark: listed apart in the source
[14] = target: T1, c-MET on human target cells; assay: cell-based or functional assay; remark: listed apart in the source
[15] = target: T1, c-MET on human target cells; assay: cell-based or functional assay; remark: listed apart in the source
[16] = target: T2, AF647 labeled c-met protein; assay: flow cytometry, EC50 relative to parental Affy6 CAR-T cells (Round 1)
Method: as §1, §2

T1 sequence (P08581 25-1390): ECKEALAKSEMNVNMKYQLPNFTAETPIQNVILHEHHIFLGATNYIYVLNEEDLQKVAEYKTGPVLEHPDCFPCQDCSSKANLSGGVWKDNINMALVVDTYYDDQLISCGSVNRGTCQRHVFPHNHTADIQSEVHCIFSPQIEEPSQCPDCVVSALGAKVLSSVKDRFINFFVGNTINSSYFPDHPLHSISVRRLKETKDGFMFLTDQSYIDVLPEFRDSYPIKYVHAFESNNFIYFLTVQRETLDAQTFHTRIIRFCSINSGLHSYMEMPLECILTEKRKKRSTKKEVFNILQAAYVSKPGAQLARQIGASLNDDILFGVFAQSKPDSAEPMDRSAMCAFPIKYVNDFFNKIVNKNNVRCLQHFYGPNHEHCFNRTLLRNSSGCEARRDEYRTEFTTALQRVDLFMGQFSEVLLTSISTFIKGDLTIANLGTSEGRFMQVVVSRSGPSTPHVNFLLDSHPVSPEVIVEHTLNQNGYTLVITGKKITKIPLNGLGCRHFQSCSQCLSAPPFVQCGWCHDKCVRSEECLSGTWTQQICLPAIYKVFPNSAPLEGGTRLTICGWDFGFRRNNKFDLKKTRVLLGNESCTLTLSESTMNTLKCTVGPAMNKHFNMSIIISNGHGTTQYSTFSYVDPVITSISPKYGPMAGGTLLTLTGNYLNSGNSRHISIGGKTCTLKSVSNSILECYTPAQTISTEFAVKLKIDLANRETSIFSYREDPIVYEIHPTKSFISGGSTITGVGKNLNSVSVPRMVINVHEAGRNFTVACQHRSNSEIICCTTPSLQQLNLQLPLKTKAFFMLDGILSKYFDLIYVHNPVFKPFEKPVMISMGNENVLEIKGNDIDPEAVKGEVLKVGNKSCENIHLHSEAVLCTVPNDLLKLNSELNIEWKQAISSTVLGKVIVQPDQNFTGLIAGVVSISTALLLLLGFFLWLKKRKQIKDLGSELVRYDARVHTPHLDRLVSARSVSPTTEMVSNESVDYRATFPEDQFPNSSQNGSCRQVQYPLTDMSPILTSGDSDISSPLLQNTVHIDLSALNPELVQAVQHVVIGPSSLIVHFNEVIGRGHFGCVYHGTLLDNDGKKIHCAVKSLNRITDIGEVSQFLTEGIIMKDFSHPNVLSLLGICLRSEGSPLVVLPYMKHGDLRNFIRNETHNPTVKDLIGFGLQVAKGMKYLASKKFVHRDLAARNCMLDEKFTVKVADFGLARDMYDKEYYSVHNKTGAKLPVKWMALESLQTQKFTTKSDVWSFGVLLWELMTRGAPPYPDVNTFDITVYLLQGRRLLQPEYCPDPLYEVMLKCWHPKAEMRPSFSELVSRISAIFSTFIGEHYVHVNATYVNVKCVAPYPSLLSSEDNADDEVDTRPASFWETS
T2 sequence (P08581 25-932 limits assumed): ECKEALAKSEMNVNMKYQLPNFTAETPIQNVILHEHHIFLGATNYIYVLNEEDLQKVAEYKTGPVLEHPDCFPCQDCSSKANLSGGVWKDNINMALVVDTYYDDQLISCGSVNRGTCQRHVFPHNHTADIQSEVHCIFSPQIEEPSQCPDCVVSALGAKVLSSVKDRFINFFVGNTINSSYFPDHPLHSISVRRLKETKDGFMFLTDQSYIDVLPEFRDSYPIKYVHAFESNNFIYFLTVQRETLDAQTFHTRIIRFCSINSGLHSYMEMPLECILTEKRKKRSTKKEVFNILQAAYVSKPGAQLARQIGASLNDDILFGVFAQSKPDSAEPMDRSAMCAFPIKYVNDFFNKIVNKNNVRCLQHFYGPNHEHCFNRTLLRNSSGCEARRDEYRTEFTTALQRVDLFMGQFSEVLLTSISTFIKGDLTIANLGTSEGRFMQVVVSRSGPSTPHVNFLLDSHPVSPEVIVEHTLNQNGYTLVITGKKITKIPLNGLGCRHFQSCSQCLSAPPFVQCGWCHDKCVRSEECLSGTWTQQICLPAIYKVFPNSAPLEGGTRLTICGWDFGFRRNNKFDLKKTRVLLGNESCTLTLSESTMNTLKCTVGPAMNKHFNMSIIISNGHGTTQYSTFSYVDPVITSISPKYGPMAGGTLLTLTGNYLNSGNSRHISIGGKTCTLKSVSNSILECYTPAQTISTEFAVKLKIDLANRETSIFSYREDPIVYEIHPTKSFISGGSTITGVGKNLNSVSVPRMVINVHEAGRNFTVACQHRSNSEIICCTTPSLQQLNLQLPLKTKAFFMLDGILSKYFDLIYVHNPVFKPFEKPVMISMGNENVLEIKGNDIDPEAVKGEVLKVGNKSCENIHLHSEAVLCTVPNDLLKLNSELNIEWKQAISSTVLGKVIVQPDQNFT

B1: Affy7-L9A CAR (other)
chain: GSEQKLISEEDLGSQVQLQQSGPELVRPGASVKMSCRASGYTFTSYWLHWVKQRPGQGLEWIGMIDPSNSDTRFNPNFKDKATLNVDRSSNTAYMLLSSLTSADSAVYYCATYGSYVSPADYWGQGTSVTVSSGGGGSGGGGSGGGGSDIMMSQSPSSLTVSVGEKVTVSCKSSQSLLYTSSQKNYLAWYQQKPGQSPKLLIYWASTRESGVPDRFTGSGSGTDFTLTITSVKADDLAVYYCQQYYAYPWTFGGGTKLEIKRASTTTPAPRPPTPAPTIASQPLSLRPEACRPAAGGAVHTRGLDFACDFWVLVVVGGVLACYSLLVTVAFIIFWVRSKRSRLLHSDYMNMTPRRPGPTRKHYQPYAPPRDFAAYRSLRVKFSRSADAPAYQQGQNQLYNELNLGRREEYDVLDKRRGRDPEMGGKPRRKNPQEGLYNELQKDKMAEAYSEIGMKGERRRGKGHDGLYQGLSTATKDTYDALHMQALPPR
notes: CAR on transduced human T cells; L to A in HC CDR3; P2A remnant not included; also called MycT-Affy7-L9A CAR-SSTR2
- cytotoxicity, Normal Human Lung Cells, 8 hrs [1]: 7.5
- cytotoxicity, Normal Human Lung Cells, 16 hrs [1]: 20.9
- cytotoxicity, Normal Human Lung Cells, 24 hrs [1]: 38.3
- cytotoxicity, Normal Human Lung Cells, 32 hrs [1]: 46.4
- cytotoxicity, Normal Human Lung Cells, 40 hrs [1]: 50.7
- cytotoxicity, Normal Human Lung Cells, 47 hrs [1]: 45.3
- cytotoxicity, Normal Human Liver Cells, 8 hrs [2]: 13.7
- cytotoxicity, Normal Human Liver Cells, 16 hrs [2]: 24.5
- cytotoxicity, Normal Human Liver Cells, 24 hrs [2]: 32.8
- cytotoxicity, Normal Human Liver Cells, 32 hrs [2]: 37.9
- cytotoxicity, Normal Human Liver Cells, 40 hrs [2]: 50.1
- cytotoxicity, Normal Human Liver Cells, 48 hrs [2]: 60
- cytotoxicity, Normal Human Kidney Cells, 8 hrs [3]: 12.9
- cytotoxicity, Normal Human Kidney Cells, 16 hrs [3]: 23.9
- cytotoxicity, Normal Human Kidney Cells, 24 hrs [3]: 30.7
- cytotoxicity, Normal Human Kidney Cells, 32 hrs [3]: 38.8
- cytotoxicity, Normal Human Kidney Cells, 40 hrs [3]: 46.9
- cytotoxicity, Normal Human Kidney Cells, 48 hrs [3]: 54.7
- cytotoxicity, Normal Human Colon Cells, 8 hrs [4]: 12.1
- cytotoxicity, Normal Human Colon Cells, 16 hrs [4]: 25
- cytotoxicity, Normal Human Colon Cells, 24 hrs [4]: 27.2
- cytotoxicity, Normal Human Colon Cells, 32 hrs [4]: 38.2
- cytotoxicity, Normal Human Colon Cells, 40 hrs [4]: 48.5
- cytotoxicity, Normal Human Colon Cells, 48 hrs [4]: 49.6
- Fold Change [5]: 20 fold
- EC50 [6]: 1 µM
- fold reduction in affinity relative to the parental-expressing CARs [7]: 20 to 7640 fold

B2: Affy7-Y6A CAR (other)
chain: B1 chain with Y113A, A120L
notes: CAR on transduced human T cells; Y to A in HC CDR3; P2A remnant not included; also called Affy-Y6A; MycT-Affy7-Y6A CAR-SSTR2
- percent cytotoxicity, SNU638, 24 hrs [8]: 79.2%
- percent cytotoxicity, SNU638, 48 hrs [8]: 93.5%
- percent cytotoxicity, SNU638, 72 hrs [8]: 98.7%
- percent cytotoxicity, Hs746T, 24 hrs [9]: 88.3%
- percent cytotoxicity, Hs746T, 48 hrs [9]: 98.4%
- percent cytotoxicity, Hs746T, 72 hrs [9]: 98.8%
- percent cytotoxicity, H1993, 24 hrs [10]: 85.7%
- percent cytotoxicity, H1993, 48 hrs [10]: 96.9%
- percent cytotoxicity, H1993, 72 hrs [10]: 99.2%
- cytotoxicity, Normal Human Lung Cells, 8 hrs [1]: 13.1
- cytotoxicity, Normal Human Lung Cells, 16 hrs [1]: 31.3
- cytotoxicity, Normal Human Lung Cells, 24 hrs [1]: 47.6
- cytotoxicity, Normal Human Lung Cells, 32 hrs [1]: 50
- cytotoxicity, Normal Human Lung Cells, 40 hrs [1]: 53
- cytotoxicity, Normal Human Lung Cells, 47 hrs [1]: 52.1
- cytotoxicity, Normal Human Lung Cells, 8 hrs [11]: 30.6
- cytotoxicity, Normal Human Lung Cells, 16 hrs [11]: 32.6
- cytotoxicity, Normal Human Lung Cells, 24 hrs [11]: 40.1
- cytotoxicity, Normal Human Lung Cells, 32 hrs [11]: 48.3
- cytotoxicity, Normal Human Lung Cells, 40 hrs [11]: 56.5
- cytotoxicity, Normal Human Lung Cells, 48 hrs [11]: 64
- cytotoxicity, Normal Human Liver Cells, 8 hrs [2]: 14.2
- cytotoxicity, Normal Human Liver Cells, 16 hrs [2]: 26.3
- cytotoxicity, Normal Human Liver Cells, 24 hrs [2]: 33.1
- cytotoxicity, Normal Human Liver Cells, 32 hrs [2]: 40.1
- cytotoxicity, Normal Human Liver Cells, 40 hrs [2]: 55
- cytotoxicity, Normal Human Liver Cells, 48 hrs [2]: 65
- cytotoxicity, Normal Human Liver Cells, 8 hrs [12]: 19.3
- cytotoxicity, Normal Human Liver Cells, 16 hrs [12]: 29.8
- cytotoxicity, Normal Human Liver Cells, 24 hrs [12]: 44.8
- cytotoxicity, Normal Human Liver Cells, 32 hrs [12]: 53.9
- cytotoxicity, Normal Human Liver Cells, 40 hrs [12]: 57.5
- cytotoxicity, Normal Human Liver Cells, 48 hrs [12]: 58.5
- cytotoxicity, Normal Human Kidney Cells, 8 hrs [3]: 15.8
- cytotoxicity, Normal Human Kidney Cells, 16 hrs [3]: 27.1
- cytotoxicity, Normal Human Kidney Cells, 24 hrs [3]: 29.4
- cytotoxicity, Normal Human Kidney Cells, 32 hrs [3]: 31.1
- cytotoxicity, Normal Human Kidney Cells, 40 hrs [3]: 42.6
- cytotoxicity, Normal Human Kidney Cells, 48 hrs [3]: 54.7
- cytotoxicity, Normal Human Kidney Cells, 8 hrs [13]: 29.2
- cytotoxicity, Normal Human Kidney Cells, 16 hrs [13]: 39.3
- cytotoxicity, Normal Human Kidney Cells, 24 hrs [13]: 48.9
- cytotoxicity, Normal Human Kidney Cells, 32 hrs [13]: 53.9
- cytotoxicity, Normal Human Kidney Cells, 40 hrs [13]: 60.5
- cytotoxicity, Normal Human Kidney Cells, 48 hrs [13]: 65.9
- cytotoxicity, Normal Human Colon Cells, 8 hrs [4]: 13.1
- cytotoxicity, Normal Human Colon Cells, 16 hrs [4]: 25
- cytotoxicity, Normal Human Colon Cells, 24 hrs [4]: 25.6
- cytotoxicity, Normal Human Colon Cells, 32 hrs [4]: 35.8
- cytotoxicity, Normal Human Colon Cells, 40 hrs [4]: 45.4
- cytotoxicity, Normal Human Colon Cells, 48 hrs [4]: 45.6
- cytotoxicity, Normal Human Colon Cells, 8 hrs [14]: 26.5
- cytotoxicity, Normal Human Colon Cells, 16 hrs [14]: 36.3
- cytotoxicity, Normal Human Colon Cells, 24 hrs [14]: 42.5
- cytotoxicity, Normal Human Colon Cells, 32 hrs [14]: 51.5
- cytotoxicity, Normal Human Colon Cells, 40 hrs [14]: 62.7
- cytotoxicity, Normal Human Colon Cells, 48 hrs [14]: 70.7
- Fold Change [5]: 66 fold
- EC50 [6]: 3.3 µM

B3: Affy6-I3A CAR (other)
chain: GSEQKLISEEDLGSQVQLVQSGAEVKKPGASVKVSCKASGYIFTAYTMHWVRQAPGQGLEWMGWIKPNNGLANYAQKFQGRVTMTRDTSISTAYMELSRLRSDDTAVYYCARSEATTEFDYWGQGTLVTVSSGGGGSGGGGSGGGGSDIVLTQSPDSLAVSLGERATINCKSSESVDSYANSFMHWYQQKPGQPPKLLIYRASTRESGVPDRFSGSGSRTDFTLTISSLQAEDVAVYYCQQSKEDPLTFGGGTKVEIKASTTTPAPRPPTPAPTIASQPLSLRPEACRPAAGGAVHTRGLDFACDFWVLVVVGGVLACYSLLVTVAFIIFWVRSKRSRLLHSDYMNMTPRRPGPTRKHYQPYAPPRDFAAYRSLRVKFSRSADAPAYQQGQNQLYNELNLGRREEYDVLDKRRGRDPEMGGKPRRKNPQEGLYNELQKDKMAEAYSEIGMKGERRRGKGHDGLYQGLSTATKDTYDALHMQALPPR
notes: CAR on transduced human T cells; I to A in HC CDR3; P2A remnant not included; also called MycTAffy6-I3A CAR-SSTR2
- percent cytotoxicity, H1993, 24 hrs [15]: 73.1%
- percent cytotoxicity, H1993, 48 hrs [15]: 95.3%
- percent cytotoxicity, H1993, 72 hrs [15]: 98.9%
- Fold Change [16]: 956 fold
- EC50 [6]: 20.9 µM
